Results published in US20080138335A1 (Kyowa Kirin, published 2008).

Target: T1, CD40 expressed on Ramos [ATCC] cells (UniProt P25942 21-277, limits assumed)
T1 construct: whole, on cells; Target of all flow cytometry and CD95 assays; endogenous CD40 on the Ramos cell line
Experiment: flow cytometry (FACS) on Ramos cells expressing CD40, R-PE anti-human antibody

T1 sequence (P25942 21-277 limits assumed): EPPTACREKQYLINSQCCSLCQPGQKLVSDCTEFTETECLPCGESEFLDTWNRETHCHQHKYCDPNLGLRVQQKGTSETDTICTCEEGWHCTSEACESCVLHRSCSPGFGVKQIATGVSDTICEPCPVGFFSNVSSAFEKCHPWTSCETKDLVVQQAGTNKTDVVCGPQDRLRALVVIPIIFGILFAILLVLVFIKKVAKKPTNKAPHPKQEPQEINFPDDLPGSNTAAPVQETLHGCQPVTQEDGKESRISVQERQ

Row | Binder | binding result
1 | 4D11-G[1133] (antibody, V domains shown, also called IgG[1/1/3/3]; N5KG1133; not shown: human IgG1 heavy chain constant region, CH1 and hinge domains (EU 118-237), from vector N5KG1-Val Lark; human IgG3 heavy chain constant region, CH2 and CH3 domains (EU 238-446), from vector N5KG3) VH: QLQLQESGPGLLKPSETLSLTCTVSGGSISSPGYYGGWIRQPPGKGLEWIGSIYKSGSTYHNPSLKSRVTISVDTSKNQFSLKLSSVTAADTAVYYCTRPVVRYFGWFDPWGQGTLVTVSS VL: AIQLTQSPSSLSASVGDRVTITCRASQGISSALAWYQQKPGKAPKLLIYDASNLESGVPSRFSGSGSGTDFTLTISSLQPEDFATYYCQQFNSYPTFGQGTKVEIK | binds
2 | 4D11-G[3311] (antibody, V domains shown, also called IgG[3/3/1/1]; N5KG3311; not shown: human IgG3 heavy chain constant region, CH1 and hinge domains (EU 118-237), from vector N5KG3; human IgG1 heavy chain constant region, CH2 and CH3 domains (EU 238-446), from vector N5KG1) VH: QLQLQESGPGLLKPSETLSLTCTVSGGSISSPGYYGGWIRQPPGKGLEWIGSIYKSGSTYHNPSLKSRVTISVDTSKNQFSLKLSSVTAADTAVYYCTRPVVRYFGWFDPWGQGTLVTVSS VL: AIQLTQSPSSLSASVGDRVTITCRASQGISSALAWYQQKPGKAPKLLIYDASNLESGVPSRFSGSGSGTDFTLTISSLQPEDFATYYCQQFNSYPTFGQGTKVEIK | binds
3 | 4D11-G3[E356D] (antibody, V domains shown, One-amino acid variant of 4D11-G3; also called IgG3-[E356D]; N5KG3-E356D; not shown: human IgG3 heavy chain constant region, from vector N5KG3) VH: QLQLQESGPGLLKPSETLSLTCTVSGGSISSPGYYGGWIRQPPGKGLEWIGSIYKSGSTYHNPSLKSRVTISVDTSKNQFSLKLSSVTAADTAVYYCTRPVVRYFGWFDPWGQGTLVTVSS VL: AIQLTQSPSSLSASVGDRVTITCRASQGISSALAWYQQKPGKAPKLLIYDASNLESGVPSRFSGSGSGTDFTLTISSLQPEDFATYYCQQFNSYPTFGQGTKVEIK | binds
4 | 4D11-G3[M358L] (antibody, V domains shown, One-amino acid variant of 4D11-G3; also called IgG3[M358L]; N5KG3-M358L; not shown: human IgG3 heavy chain constant region, from vector N5KG3) VH: QLQLQESGPGLLKPSETLSLTCTVSGGSISSPGYYGGWIRQPPGKGLEWIGSIYKSGSTYHNPSLKSRVTISVDTSKNQFSLKLSSVTAADTAVYYCTRPVVRYFGWFDPWGQGTLVTVSS VL: AIQLTQSPSSLSASVGDRVTITCRASQGISSALAWYQQKPGKAPKLLIYDASNLESGVPSRFSGSGSGTDFTLTISSLQPEDFATYYCQQFNSYPTFGQGTKVEIK | binds
5 | 4D11-G[3313] (antibody, V domains shown, also called IgG[3/3/1/3]; N5KG3313; not shown: human IgG3 heavy chain constant region, CH1 and hinge domains (EU 118-237), from vector N5KG3; human IgG1 heavy chain constant region, CH2 domain (EU 238-340), from vector N5KG1 by way of N5KG3311; human IgG3 heavy chain constant region, CH3 domain (EU 341-446), from vector N5KG3) VH: QLQLQESGPGLLKPSETLSLTCTVSGGSISSPGYYGGWIRQPPGKGLEWIGSIYKSGSTYHNPSLKSRVTISVDTSKNQFSLKLSSVTAADTAVYYCTRPVVRYFGWFDPWGQGTLVTVSS VL: AIQLTQSPSSLSASVGDRVTITCRASQGISSALAWYQQKPGKAPKLLIYDASNLESGVPSRFSGSGSGTDFTLTISSLQPEDFATYYCQQFNSYPTFGQGTKVEIK | binds
6 | 4D11-G3[I422V] (antibody, V domains shown, One-amino acid variant of 4D11-G3; also called IgG3[I422V]; N5KG3-1422V; not shown: human IgG3 heavy chain constant region, from vector N5KG3) VH: QLQLQESGPGLLKPSETLSLTCTVSGGSISSPGYYGGWIRQPPGKGLEWIGSIYKSGSTYHNPSLKSRVTISVDTSKNQFSLKLSSVTAADTAVYYCTRPVVRYFGWFDPWGQGTLVTVSS VL: AIQLTQSPSSLSASVGDRVTITCRASQGISSALAWYQQKPGKAPKLLIYDASNLESGVPSRFSGSGSGTDFTLTISSLQPEDFATYYCQQFNSYPTFGQGTKVEIK | binds
7 | 4D11-G[3331] (antibody, V domains shown, also called IgG[3/3/3/1]; N5KG3331; not shown: human IgG3 heavy chain constant region, CH1, hinge and CH2 domains (EU 118-340), from vector N5KG3; human IgG1 heavy chain constant region, CH3 domain (EU 341-446), from vector N5KG1) VH: QLQLQESGPGLLKPSETLSLTCTVSGGSISSPGYYGGWIRQPPGKGLEWIGSIYKSGSTYHNPSLKSRVTISVDTSKNQFSLKLSSVTAADTAVYYCTRPVVRYFGWFDPWGQGTLVTVSS VL: AIQLTQSPSSLSASVGDRVTITCRASQGISSALAWYQQKPGKAPKLLIYDASNLESGVPSRFSGSGSGTDFTLTISSLQPEDFATYYCQQFNSYPTFGQGTKVEIK | binds
8 | 4D11-G3[M397V] (antibody, V domains shown, One-amino acid variant of 4D11-G3, made on N5KG3-4D11; also called N5KG3-M397V; 4D11-G[M397V]; not shown: human IgG3 heavy chain constant region, from vector N5KG3-4D11) VH: QLQLQESGPGLLKPSETLSLTCTVSGGSISSPGYYGGWIRQPPGKGLEWIGSIYKSGSTYHNPSLKSRVTISVDTSKNQFSLKLSSVTAADTAVYYCTRPVVRYFGWFDPWGQGTLVTVSS VL: AIQLTQSPSSLSASVGDRVTITCRASQGISSALAWYQQKPGKAPKLLIYDASNLESGVPSRFSGSGSGTDFTLTISSLQPEDFATYYCQQFNSYPTFGQGTKVEIK | binds
9 | 4D11-G3[N392K] (antibody, V domains shown, One-amino acid variant of 4D11-G3; also called IgG3[N392K]; N5KG3-N392K; not shown: human IgG3 heavy chain constant region, from vector N5KG3) VH: QLQLQESGPGLLKPSETLSLTCTVSGGSISSPGYYGGWIRQPPGKGLEWIGSIYKSGSTYHNPSLKSRVTISVDTSKNQFSLKLSSVTAADTAVYYCTRPVVRYFGWFDPWGQGTLVTVSS VL: AIQLTQSPSSLSASVGDRVTITCRASQGISSALAWYQQKPGKAPKLLIYDASNLESGVPSRFSGSGSGTDFTLTISSLQPEDFATYYCQQFNSYPTFGQGTKVEIK | binds
